{"source": "patent US9333268B2", "about": "“Methods of treatment with arginine deiminase” (Polaris Group, priority 2012, dated 2016)", "key": {"[1]": {"experiment": "Specific activity of ADI-PEG 20", "type": "biochemical", "description": "(§1) The anti-tumor efficacy of ADI-PEG 20 was simultaneously assessed in mice bearing either moderate or large SK-LC-13 SCLC xenografts. In the first study, treatment was initiated once tumors had reached an average size of 125 mm^3. In the large xenograft study, treatment was initiated once tumors had reached an average size of 500 mm^3. Arginine deiminase-PEG20 was administered at doses of 1, 2 and 5 IU per animal once every 5 days for 20 days (five doses). To assess the effect of sustained dosing, further groups (n=5) at all dose levels received continued administration of ADI-PEG 20 every 5 days until tumors progressed to the 1,000 mm^3 size limit. Additionally, the efficacy of ADI-PEG 20 was assessed in mice bearing ASS-positive NCI-H69 xenografts. Here, mice received five doses of 2 IU ADI-PEG 20 for 20 days once tumor had reached an average size of 150 mm^3. Arginine deiminase-PEG20 was administered by intraperitoneal injection in all studies. The specific activity of ADI-PEG 20 used in these studies is 9 IU mg^−1 of protein. Thus, 1 IU of ADI-PEG 20 per 20 g mouse is equivalent to 160 IU m^−2."}, "[2]": {"tested_on": "SK-LC-13", "experiment": "Western blot of autophagy-related protein LC3-II", "type": "cell-based, human", "settings": "24 hour incubation", "source_text": "Following washing, the membranes were then probed with the appropriate secondary antibody before proteins were finally visualized using ECL reagent (Perkin-Elmer, Fremont Calif., USA).\nAn assay for the formation of the autophagy-related protein LC3-II assessed if treatment with ADI-PEG 20 was able to induce cellular autophagy in SCLC. […] Chloroquine is a known inhibitor of autophagy that disrupts normal lysosomal functions, and thus results in an increase in the cellular level of LC3-II."}, "[3]": {"tested_on": "SK-LC-13 xenografts", "experiment": "Large SK-LC-13 SCLC xenografts in BALB/c-nude mice", "type": "in vivo", "description": "(§2) The activity of ADI-PEG 20 was also assessed in mice bearing ASS-positive NCI-H69 SCLC xenografts. Small cell lung cancer xenografts were established in female BALB/c-nude mice, 3-4 weeks of age weighing ˜20 g (Charles River Labs, Wilmington, Mass., USA). To establish the tumors, 10×10^6 cells in media were mixed 1:1 with Matrigel High Concentration (BD Biosciences) and injected subcutaneously in the abdominal area of the mice. Tumor growth was regularly measured and tumor volume calculated using the formula (TV=(length×width^2)/2). All animal studies were approved by the MSKCC Institutional Animal Care and Use Committee. Mice were euthanized when tumors reached an approximate volume of 1,000 mm^3.\nas §1\n(§3) Efficacy of ADI-PEG 20 treatment in vivo was assessed by comparing means of control and treatment groups using unpaired two-tailed t-tests at the termination of control groups using GraphPad Prism (Version 5.0, GraphPad Software Inc., La Jolla, Calif., USA)."}, "[4]": {"tested_on": "non-adherent ASS-positive cells", "experiment": "Total protein proliferation assay, non-adherent cells", "type": "cell-based", "settings": "0-10 mIU ml^−1, 120 h", "description": "(§4) To assess the activity of ADI-PEG 20 in non-adherent cells, cells were plated at a density of 1×10^5 cells per well in a tissue culture 24-well plate. Additional media was then added containing ADI-PEG 20 for final concentrations ranging from 0-10 mIU ml^−1. To measure changes in proliferation following incubation with ADI-PEG 20 for 120 h, cells were collected, washed and lysed in RIPA buffer. Total protein for each treatment was then determined using the BSA protein assay as a measure of total cell number. All treatments were performed at least in triplicate."}, "[5]": {"tested_on": "non-adherent ASS-deficient cells", "experiment": "Total protein proliferation assay, non-adherent cells", "type": "cell-based", "settings": "0-10 mIU ml^−1, 120 h", "description": "as §4"}, "[6]": {"tested_on": "SK-LC-13 xenografts", "experiment": "Moderately sized SK-LC-13 SCLC xenografts in BALB/c-nude mice", "type": "in vivo", "description": "as §2, §1, §3"}, "[7]": {"tested_on": "ASS high osteosarcoma cell line MG63", "experiment": "Sarcoma cell line panel treated with ADI-PEG 20", "type": "cell-based"}, "[8]": {"tested_on": "ASS-positive control lines, Fujioka and U937", "experiment": "Viability of AML cell lines treated with ADI-PEG 20", "type": "cell-based", "description": "(§5) In this example, it was determined whether ASS negativity would predict for the efficacy of pegylated arginine deiminase (ADI-PEG 20) using AML cell lines and primary AML samples. A lack of ASS protein was identified in three of seven leukemic cell lines (K562, Kasumi and KG-1) and in all nine samples from patients with cytogenetically normal and abnormal karotype AML. Methylation of the ASS promoter correlated with reduced levels of ASS mRNA and absence of ASS expression.\n(§6) Primary ASS-negative AML samples with good engraftment in NOD/SCID mice have been identified and studies of the efficacy of ADI-PEG 20 using this primary AML xenograft model have begun. Based on the results described herein and the potential efficacy with low toxicity of arginine deprivation in humans, a phase II trial of ADI-PEG 20 has been planned in patients with relapsed AML."}, "[9]": {"tested_on": "ASS-negative AML lines", "experiment": "Viability of AML cell lines treated with ADI-PEG 20", "type": "cell-based", "description": "as §5, §6"}, "[10]": {"tested_on": "ASS low expressing osteosarcoma cell line MNNG", "experiment": "Xenograft of osteosarcoma cell line MNNG in nude mice", "type": "in vivo", "settings": "compared to PBS treated controls"}, "[11]": {"tested_on": "L-arginine and L-citrulline", "experiment": "Serum arginine and citrulline by HPLC", "type": "in vivo, mice", "description": "In order to determine the effect of ADI-PEG 20 treatment on systemic arginine levels, mice sera were analyzed using high-performance liquid chromatography (HPLC). L-arginine and L-citrulline were resolved with a Pickering Laboratories PCX 5200 post-column derivatization instrument (Pickering Laboratories, Mountain View, Calif., USA) at 39° C. reaction temperature and a fluorescence detector. […] Total ADI-PEG 20 levels were measured by ELISA, as described previously (Holtsberg et al, J Control Release 80(1-3):259-271, 2002)."}, "[12]": {"tested_on": "sarcoma cell lines with low expression of ASS", "experiment": "Sarcoma cell line panel treated with ADI-PEG 20", "type": "cell-based"}}}
{"molecule": "ADI-PEG 20: arginine deiminase (ADI) formulated with PEG of 20,000 m.w. (protein) MSVFDSKFNGIHVYSEIGELETVLVHEPGREIDYITPARLDELLFSAILESHDARKEHQSFVKIMKDRGINVVELTDLVAETYDLASKAAKEEFIETFLEETVPVLTEANKEAVRAFLLSKPTHEMVEFMMSGITKYELGVESENELIVDPMPNLYFTRDPFASVGNGVTIHFMRYIVRRRETLFARFVFRNHPKLVKTPWYYDPAMKMSIEGGDVFIYNNETLVVGVSERTDLDTITLLAKNIKANKEVEFKRIVAINVPKWTNLMHLDTWLTMLDKNKFLYSPIANDVFKFWDYDLVNGGAEPQPQLNGLPLDKLLASIINKEPVLIPIGGAGATEMEIARETNFDGTNYLAIKPGLVIGYDRNEKTNAALKAAGITVLPFHGNQLSLGMGNARCMSMPLSRKDVKW", "values": [{"measurement": "specific activity", "setting": "[1]", "value": "9 IU mg^−1 of protein"}, {"measurement": "cellular level of LC3-II", "setting": "[2]", "value": "clear increase in the detectable cellular level of the protein"}, {"measurement": "tumor growth", "setting": "[3]; 1, 2 and 5 IU, tumors 473.4±161.0 mm^3 at start", "value": "dose-dependent inhibition of tumor growth"}, {"measurement": "tumor volume relative to control mice", "setting": "[3]; 1 IU, continued treatment, day 32 (P=0.007)", "value": "significantly reduce the tumor volume"}, {"measurement": "tumor volume, continued relative to short-course treatment", "setting": "[3]; 1 IU, day 39", "value": "moderately significant (P=0.26) reduction in tumor volume"}, {"measurement": "tumor size relative to control mice", "setting": "[3]; 1 IU, short-course, day 32 (P=0.07)", "value": "did not result in a statistical significant reduction"}, {"measurement": "tumor volume relative to untreated controls", "setting": "[3]; 2 IU, continued (P=0.0007)", "value": "significant reduction of tumor volume"}, {"measurement": "tumor volume relative to untreated controls", "setting": "[3]; 2 IU, short (P=0.004)", "value": "significant reduction of tumor volume"}, {"measurement": "responses, continued dosing relative to short-course", "setting": "[3]; 2 and 5 IU", "value": "did not significantly improve responses"}, {"measurement": "tumor volume relative to untreated controls", "setting": "[3]; 5 IU, continued (P=0.0001)", "value": "significant reduction of tumor volume"}, {"measurement": "tumor volume relative to untreated controls", "setting": "[3]; 5 IU, short (P=0.0003)", "value": "significant reduction of tumor volume"}, {"measurement": "proliferation", "setting": "[4]", "value": "almost total resistance"}, {"measurement": "proliferation", "setting": "[5]", "value": "relative decrease in proliferation"}, {"measurement": "tumor growth relative to control mice", "setting": "[6]; 1, 2 and 5 IU per animal every 5 days, intraperitoneal", "value": "significant and dose-dependent reduction in tumor growth"}, {"measurement": "mean tumor volumes, short vs continued dosing", "setting": "[6]; 1 IU (P=0.251)", "value": "not significantly different"}, {"measurement": "mean tumor volumes, short vs continued dosing", "setting": "[6]; 2 IU (P=0.084)", "value": "not significantly different"}, {"measurement": "tumor size, continued dosing vs dosing for only 20 days", "setting": "[6]; 5 IU every 5 days, at completion of the study (P=0.0063)", "value": "significantly smaller"}, {"measurement": "mean tumor volume of control mice compared with ADI-PEG 20-treated groups", "setting": "[6]; day 33, regardless of dose or schedule (P>0.0001)", "value": "significantly larger"}, {"measurement": "cell division", "setting": "[7]", "value": "continued to divide"}, {"measurement": "viability (response to drug-induced arginine deprivation)", "setting": "[8]", "value": "resistant"}, {"measurement": "viability", "setting": "[9]", "value": "reduced the viability"}, {"measurement": "tumor growth rate", "setting": "[10]", "value": "significantly slower tumor growth rate"}, {"measurement": "citrulline levels", "setting": "[11]; 1, 2, 5 IU", "value": "rose in a dose-dependent relationship to arginine"}, {"measurement": "serum arginine after end of dosing", "setting": "[11]; 20 days after the last dose (day 40)", "value": "returned to normal levels"}, {"measurement": "citrulline levels", "setting": "[11]; continued dosing, 2 and 5 IU", "value": "Little increase in citrulline levels"}, {"measurement": "arginine serum levels", "setting": "[11]; extended dosing, 1 IU", "value": "below the limits of detection"}, {"measurement": "citrulline levels", "setting": "[11]; extended dosing, 1 IU", "value": "increased with extended dosing"}, {"measurement": "serum arginine", "setting": "[11]; short course of treatment", "value": "only temporarily depleted serum arginine"}, {"measurement": "cell cycle and apoptosis", "setting": "[12]; ASS expression low", "value": "cell cycle arrest but not apoptosis"}, {"measurement": "autophagy", "setting": "[12]; sarcomas that lack ASS", "value": "induced autophagy"}, {"measurement": "IC50", "setting": "[12]; sensitive cell lines with low expression of ASS", "value": "0.02 to 0.1", "unit": "µg/mL"}]}
